For assay [1], the target named is T1, human BTLA (human, UniProt Q7Z6A9). The experiment in a line: SPR.
The target in assay [2] is T1, human BTLA. The experiment in a line: SPR. The source holds these as a separate data set.
Assay [3] addresses T1, human BTLA. As to the kind of experiment: FACS, 4C. In general terms: A flow cytometer gives signals particle by particle.

Like-named read-outs stand apart in the source and are kept apart here.

As a reminder, the Kd is the constant that tells how readily two partners part at equilibrium. The term EC50 denotes the concentration needed to bring the measured effect to its halfway point. Lower therefore signals a more potent agent.

T1 sequence (Q7Z6A9 31-157): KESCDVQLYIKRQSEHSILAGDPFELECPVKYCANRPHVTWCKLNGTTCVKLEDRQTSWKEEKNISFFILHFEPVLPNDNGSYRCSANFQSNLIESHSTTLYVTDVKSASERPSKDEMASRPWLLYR

B1: hu Mab8D5 (IgG4 S228P) (antibody, V domains shown)
VH: EVQLVESGGGLVQPGGSLRLSCAASGFTISSYDMHWVRQATGKGLEWVSVIGPAGDTYYPGSVKGRFTISRENAKNSLYLQMNSLRAGDTAVYYCAREGMAAHNYYGMDVWGQGTTVTVSS
VL: not shown
Consider B1, for which the Kd worked out at 2.4 nM in the assay with human BTLA [1] and 2.99 nM in the assay with human BTLA [2]. For the same molecule, in the assay with human BTLA [3], the 50% effective concentration (EC50) was ~12 nM.

B2: hu Mab8D5 G1 (IgG1) (antibody, V domains shown)
VH: B1 VH
VL: not shown
For B2, in the assay with human BTLA [3], the EC50 is ~12 nM.
